In paper PMC6353898 (Scientific Reports, 2019):
Ends that are not written are not given here. * marks the point of attachment. FITC = O=C1OC2(c3ccc(O)cc3Oc3cc(O)ccc32)c2ccc(NC(=S)*)cc21; Ahx = NCCCCCC(=O)O

Biological target: T1, EGFR on A431 and MDA MB 468 cells (human (endogenous in A431 and MDA MB …, UniProt P00533 25-1210))
T1 construct: also called Epidermal growth factor receptor; EGFR overexpressing cells; source: endogenous, overexpressed on A431 and MDA MB 468 cells
Test: flow cytometry on cells; A431, MDA MB 468 and HEK 293 cells; FITC labeled peptides 10 µM in HBSS, 37 °C, 15 minutes; washed, trypsinized; mean fluorescence intensity
Conditions: one partner purified

B1: FITC conjugated Pep11 (designed binder)
peptide: {FITC-Ahx}-WSGENGPGFYDYEA
notes: Pep11, FITC labelled; also called FITC-Pep11; source: synthetic peptide (solid phase, Fmoc chemistry, HPLC purified)
  fold fluorescence against the other peptides: 1.5 fold
